This note sets out measurements from publication PMC6797613, “Crystal Structure Of Photorespiratory Alanine:Glyoxylate Aminotransferase 1 (AGT1) From Arabidopsis thaliana” (Frontiers in Plant Science, 2019).

The data set concerns the molecule itself. As to the kind of experiment: crystal structure; crystals grown by vapor diffusion from 4.1-4.2 M sodium formate, protein 11 mg/ml in 0.2 mM PLP, 10% glycerol, 100 mM Tris-HCl pH 8.5, room temperature; without or with 20 mM L-serine; data collected at 25°C; dimer by crystallographic dyad, tetramer by noncrystallographic two-fold axis.

B1: alanine:glyoxylate aminotransferase 1 (AGT1) from Arabidopsis thaliana (enzyme, UniProt Q56YA5 1-401, looked up)
chain: MDYMYGPGRHHLFVPGPVNIPEPVIRAMNRNNEDYRSPAIPALTKTLLEDVKKIFKTTSGTPFLFPTTGTGAWESALTNTLSPGDRIVSFLIGQFSLLWIDQQKRLNFNVDVVESDWGQGANLQVLASKLSQDENHTIKAICIVHNETATGVTNDISAVRTLLDHYKHPALLLVDGVSSICALDFRMDEWGVDVALTGSQKALSLPTGLGIVCASPKALEATKTSKSLKVFFDWNDYLKFYKLGTYWPYTPSIQLLYGLRAALDLIFEEGLENIIARHARLGKATRLAVEAWGLKNCTQKEEWISNTVTAVMVPPHIDGSEIVRRAWQRYNLSLGLGLNKVAGKVFRIGHLGNVNELQLLGCLAGVEMILKDVGYPVVMGSGVAAASTYLQHHIPLIPSRI
notes: alanine:glyoxylate aminotransferase 1 (AGT1), Arabidopsis thaliana, AGI At2G13360, full length (residues 2/3-401 seen in the crystal); Untagged recombinant protein from a pET28a-derived plasmid (construct as in Liepman and Olsen, 2001); Catalytic dimer; an apparent tetramer (dimer of dimers) is seen in the crystal only; also called Arabidopsis AGT1; serine:glyoxylate aminotransferase; source: E. …
Broadly, the stoichiometry N is a count of units in the complex or per binding partner. As to B1, the “stoichiometry N” value was determined as 2.
